We go through three substances from paper doi:10.1101/2024.11.11.622902.

Several values for one entry are separate records, joined by “and”; a condition that tells them apart may be missing. Equal entries are not always repeated. Where two headings read alike, the source gives them in different places.

The target in test [1] is porcine glyceraldehyde-3-phosphate dehydrogenase (pGAPDH), wild type (pig (Sus scrofa)). Kind of test: SEC. (In general: SEC sorts molecules by how far they enter the pores of the column.)
The target is the same in test [2]. Briefly: SEC. The source holds these as a separate data set.
For test [3] the target is unchanged. Briefly: SEC. This is another data set of the same source.
For test [4] the target is unchanged. Briefly: SEC. The source holds these as a separate data set.
The target is the same in test [5]. Kind of test: SEC. This is another data set of the same source.
For test [6] the target is unchanged. Kind of test: SEC. This is another data set of the same source.
In test [7] the target is human glyceraldehyde-3-phosphate dehydrogenase (hGAPDH), wild type (human). Briefly: SEC.
The target is the same in test [8]. Kind of test: native MS.
For test [9] the target is unchanged. Kind of test: native MS. The source holds these as a separate data set.
Test [10] has the same target. Kind of test: SEC. This is another data set of the same source.
The target of test [11] is S-nitrosylated human GAPDH (hGAPDH treated with S-nitrosocysteine, CysNO) (human). Briefly: native MS.

On to “porcine glyceraldehyde-3-phosphate dehydrogenase (pGAPDH), wild type (enzyme)”, for which the stoichiometry N in [1] is 4; in test [2] it was 4 and 2; in test [3], 2; in [4], 4; in test [5], 4; in test [6], 4.
On to “human glyceraldehyde-3-phosphate dehydrogenase (hGAPDH), wild type (enzyme)”, for which the stoichiometry N in [7], in [8], in [9] and in [10] was 4 in each case.
In [11], “S-nitrosylated human GAPDH (hGAPDH treated with S-nitrosocysteine, CysNO) (enzyme)” registered a stoichiometry N of 4.

For orientation: stoichiometry N means a count of units in the complex or per binding partner.
